# From the DeepSol protein solubility set
# Test: soluble on expression in E. coli; label from the status in PepcDB or PDB records
row,Sequence,soluble on expression in E. coli
1,MNTNSYSMAQDNEEITKLEAPSTNKTNTLLSQSHAVVNHGDNGQINGKKTKEIHRVKRASDKKVSSKRVSRTWKIPKYPKKQPKSDQEHPGFNLDYMQPTTHPPHHN,soluble
2,MNTPAQRHFTLEPANAERLADLSGCFNEHLRQIELRLGVEIANRGHTFHITGPEPAVTSTETLLRALYAEATGTTFNNHTIQLRLSEAHMAQIVEQTDTPQDIGIRVKRGTVRGHGANQTKYLHKIATHDINFGIGPAGTGKTFLAVASAVEALNESRVQRLILVRPAVEAGEKLGFLPGDLNQKIDPYLRPLYDALYEMLGVEKVLKLLEKNIIEIAPLAYMRGRTLNNAFVILDEAQNTTIEQMKMFLTRLGFGSTAVVTGDLTQIDIPKHLKSGLDDAIEVLHDIEGISFTFFKSHDVVRHPLVARIVSAYDKHNTHPSTTKPA,not soluble
3,MNTPLQRPLADSTGLIENDAHALAVATALAQEFSIDAALRDRERQIPYSELDAVSRSGILGISIPLAFGGAEVNNVILAKVIAQIAQADGSLGQILQNHFHTLEALRVYGSRAQQQRIFAEVLAGALFGVAVDEQGTTNSQICTAVLAPSGEGYRISGRKFCATCAPYTRQILASAVDAQGARYMVFISLDALGLSIVDDGSCFGQRTVGGGSVMFDNVYVTSSDVVPFQVSLNDPNCVERHAQFMHAAVGTGIARAAYEDTLRFVREHARPWPEAAVDKARDDPLTIIEIGRLIIRLHAAEALLERAGAAVDLNRKAVCAENVALASMVVAAAQTLSTEVSLAAGSKLIELGGARATLSDYGLDRHWRNARVHTLYDPARWGPHQQGQQKLAPF,not soluble
4,MNTTPFPALSAETLLAVNTVGQWLAQNDFSGEQPYSSDCVVLAGNAVIPTIDAACRIAKAQGVPLLISGGIGHSTPFLYAVIARHPRYHTIRTSGRAEAAILADIANQFWHIPAEKIWLEDRSTNCGENARFSCALIRQAKENINTAIVVQDPTMQRRTIAAFRRVTNDDTDAPRWLSFPGFVPVLRHLNDGTRFANVEEGIWTVERYLSLIAGELPRLRDDETGYGPRGKDFIIHVDIPRDIENAWQVLQADTTLRSALGQRALRLEHHHHHH,soluble
5,MNVLVIEDDKVFRGLLEEYLSMKGIKVESAERGKEAYKLLSEKHFNVVLLDLLLPDVNGLEILKWIKERSPETEVIVITGHGTIKTAVEAMKMGAYDFLTKPCMLEEIELTINKAIEHRKLRKENELLRREKDLKEEEYVFESPKMKEILEKIKKISCAECPVLITGESGVGKEVVARLIHKLSDRSKEPFVALNVASIPRDIFEAELFGYEKGAFTGAVSSKEGFFELADGGTLFLDEIGELSLEAQAKLLRVIESGKFYRLGGRKEIEVNVRILAATNRNIKELVKEGKFREDLYYRLGVIEIEIPPLRERKEDIIPLANHFLKKFSRKYAKEVEGFTKSAQELLLSYPWYGNVRELKNVIERAVLFSEGKFIDRGELSCLVNSK,soluble
6,MNVVKFGGSSLASAPQLQKVLQIVKEEPRRTFVVVSAPGKRTPQDIKVTDLLIQYYQRYLNNEEIESTISAIIRRYEDLFDELHLDKAVLADIAISIRQLATLPKENNAFLFDYFLASGEDNNAKVVASFFKQNGLDARYISPKELGLLVTPEPGNARILPKALEKISVYRETQQILVIPGFFGYTEAGEICTFSRGGSDITGSIVAAGVQADLYENFTDVDGIYVAHPGIIEQPQTIQELTYREMRELAYAGFAVLHDEALMPAYRANIPVVIKNTNNPHHPGTLITTSRKVKHAPVVGIASDQGFASIYISKYLMNRELGFGRRLLEVLEKLALSYEHMPSGIDDITIVLREDQLTTEIENRLMAQLQEVLAPDELRITHHLSMIMIVGEGMRQRIGVTAESTMALAKEKINLEMINQGSSEVSIMFGIKKEQEEKAIKALYRTFFHD,not soluble
7,MNVWLLGRGELRRRHDDVLQLERAFLTDRTGLHFVNARSSEDLLALAESRRAEQQWPVLDAEWISPVGTDTCDDLVWQNLESTLDGRPDTFYSTAGFEAGNTLSGTGELAPGEAFLAYRFWRPVRVYAVQLRAFQADFHPGRPVYPFQVARVGVGCSLQAGMSLSYGADASAPGTSCNYRCFCTTEQQTLVFDDPMVGVYLVICLKGFPQQQLTDRLHYAAVSGIRVFGEPISSPALENELSCLISRGFILDGRDAARWLDLRSAQEHAAPMHIPEDEVI,not soluble
8,MNYFVGNSLGVNLTGIEKAIINRLNLFKEMGRPAQCVFLSWNRYLYRNAQNYITSSDYINMYDFFQEATYLERNEPFDWLSYWTDECHYTLKHVENSHDFRIYDQERFLMYAHFQDPKYRILDYVNHFDSQRRKVKRDFYDVRGFLSCSRILVDKQQTLCEFFYNPEGDTKLEKYFSYKDGKPEVQKIIVYYANKQYFFNNETELGAFFIKQLYQHGDLFFSDRNVYTAPIFNLTPESIPVVAVLHSTHIKNIDALDSSPFKNVYKAMFENLSRYRAIIVSTEQQKLDVEKRINHTIPVVNIPVGYSETIDTPVQTLDQRSVKLISVARYSPEKQLHQQIELIKRLVSYVPKIELHMYGFGSESKKLNELIQKYGLENHVYLRGFLSNLDQEYSDAYLSLITSNMEGFSLALLESLAHGVPVISYDIKYGPNELITSDFNGYLITKNDEDALFDKVKYVIDHPEVQQRLSKGSLAKAQQYSKASLIKQWDQFVRLI,not soluble
9,MNYRHIYHAGNFADVFKHIIVTRIIEYLKRKEKAFRVIDTHAGIGIYDLSSLEAHKTGEWREGVYQLLSTPIPEDLKALLYPWCNIIETLNKGKKDILFYPGSPVLIRQLLRKQDRLTAIELHREDYHILAKNFAGDYQTKVLHLNGWLSLNAHLPPKEKRGFILVDPPFEKPGEFSRLIEGLMKAYRRFSGGIYALWYPVKYDKEIENFLHALHQTGIPKILQLEMRIRKSSIPPTMNGSGMILINPPYLLEEEIKKLSPFLIARLGQDKNAQITHKWIQKEQLLC,not soluble
10,MNYRNKAFLKYEEDYFIERIIKALKDYEEIIIISNNPEEYKEFGLKVFKDIYPSQGPLSGIHSALNHIKNDYCLVVACDMPFINKDVVNYLGNIKEDYEILIPKFQERLQPLCAIYKKSCKDIMEKELINNSNKLIKTCFKFSMKVVEEFPFIEKVHKKEIKNFYNINTVDEYEDLIKKKEILEHHHHHH,not soluble
11,MPAKDVQICPIAVDTTVFRSRTWDRLKFEIEYGLQRGTTANSYLISADKIALFDPPGESFTDNFVGTLIQRLDLNSLDYVILGHVNANRAHTLKLLLSLAPQATIICSNPAAQNLEKLLADAEVNNPIQVMKGNDHLDLGRGHELTFIPTPSPRYPGQLCTYDPRTEILFTDKLFGAHVCGDQVFDEGWTIYQEDRRYYFDCLLAPAAAQVSAALNKLEAYPAQTYAPSHGPLVRYGLRELTRNYQQWLSEQQAQALEHHHHHH,not soluble
12,MPAPLYGADDPLRCSGNSVSEVLDKFRKKYDLIMSLPQETKEEKEFRHCIWLAEKEEREQIYQTSIRPFRKATYTHFPEIDPRLRNYRSRYGAISND,not soluble
13,MPCVQAQYGSSPQGASPASQSYSYHSSGEYSSDFLTPEFVKFSMDLTNTEITATTSLPSFSTFMDNYSTGYDVKPPCLYQMPLSGQQSSIKVEDIQMHNYQQHSHLPPQSEEMMPHSGSVYYKPSSPPTPTTPGFQVQHSPMWDDPGSLHNFHQNYVATTHMIEQRKTPVSRLSLFSFKQSPPGTPVSSCQMRFDGPLHVPMNPEPAGSHHVVDGQTFAVPNPIRKPASMGFPGLQIGHASQLLDTQVPSPPSRGSPSNEGLCAVCGDNAACQHYGVRTCEGCKGFFKRTVQKNAKYVCLANKNCPVDKRRRNRCQYCRFQKCLAVGMVKEVVRTDSLKGRRGRLPSKPKSPQEPSPPSPPVSLISALVRAHVDSNPAMTSLDYSRFQANPDYQMSGDDTQHIQQFYDLLTGSMEIIRGWAEKIPGFADLPKADQDLLFESAFLELFVLRLAYRSNPVEGKLIFCNGVVLHRLQCVRGFGEWIDSIVEFSSNLQNMNIDISAFSCIAALAMVTERHGLKEPKRVEELQNKIVNCLKDHVTFNNGGLNRPNYLSKLLGKLPELRTLCTQGLQRIFYLKLEDLVPPPAIIDKLFLDTLPF,soluble
14,MPDDKVPTVPDKGADGSPGSSFKNPEILSSQPSESMQAVYEILIQGNNLKTGLPSIVKSQEDLQTLYSVLYGNSLKAPLIDFSKKAVVIAAAGPFNTGGYSIVPVSAIKTGKIINLVFEVKSPGPKDMVTQAFTRPYVIVSVDAEPDTEIFIEINGDAKNDKLDF,not soluble
15,MPDGTIDGGHPQRPASPRLRSPLLRLATWNVNSIRTRLDRVLDWLGRADVDVLAMQETKCPDGQFPALPLFELGYDVAHVGFDQWNGVAIASRVGLDDVRVGFDGQPSWSGKPEVAATTEARALGATCGGIRVWSLYVPNGRALDDPHYTYKLDWLAALRDTAEGWLRDDPAAPIALMGDWNIAPTDDDVWSTEFFAGCTHVSEPERKAFNAIVDAQFTDVVRPFTPGPGVYTYWDYTQLRFPKKQGMRIDFILGSPALAARVMDAQIVREERKGKAPSDHAPVLVDLHAG,not soluble
16,MPENYTPAAAATGTWTEEEIRHQPRAWIRSLTNIDALRSALNNFLEPLLRKENLRIILTGAGTSAFIGDIIAPWLASHTGKNFSAVPTTDLVTNPMDYLNPAHPLLLISFGRSGNSPESVAAVELANQFVPECYHLPITCNEAGALYQNAINSDNAFALLMPAETHDRGFAMTSSITTMMASCLAVFAPETINSQTFRDVADRCQAILTSLGDFSEGVFGYAPWKRIVYLGSGGLQGAARESALKVLELTAGKLAAFYDSPTGFRHGPKSLVDDETLVVVFVSSHPYTRQYDLDLLAELRRDNQAMRVIAIAAESSDIVAAGPHIILPPSRHFIDVEQAFCFLMYAQTFALMQSLHMGNTPDTPSASGTVNRVVQGVIIHPWQA,soluble
17,MPESSRDKGNAAISGNRSVLSIASPTKLNILSSDWSRNQGKVSKNSLKRSSSLNIRNSKRPSLQASANSIYSRPKITIGAPPLIRRDSSFFKDEFDAKKDKATFSAYSSRSYPTIGSESVVSQTSLSQPTTSREVDEQFTVAADRYIPILQGASQNKVDPETLHEALPPPNASPISHLRAQTKIVFKQNVAEACGLDMNKRILQYMPEPPKCSSLRQKSYIMKKRTHYSYQQEQKIPDLIKLRKINTNPERILDAPGFQDDFYLNLLSWSKKNVLAIALDTALYLWNATTGDVSLLTDFENTTICSVTWSDDDCHISIGKEDGNTEIWDVETMSLIRTMRSGLGVRIGSLSWLDTLIATGSRSGEIQINDVRIKQHIVSTWAEHTGEVCGLSYKSDGLQLASGGNDNTVMIWDTRTSLPQFSKKTHTAAVKALSWCPYSPNILASGGGQTDKHIHFWNSITGARVGSINTGSQVSSLHWGQSHTSTNGGMMNKEIVATGGNPENAISVYNYETKFKVAEVVHAHEARICCSQLSPDGTTLATVGGDENLKFYKIFDPRCTGRSREDGLMDGMLGLIGKEGCRTNDKENRSKNSSEIHTRRPSSTSQYLIR,not soluble
18,MPFSISGRKGSEMMAKLDELKQKLTAKQIQAAYLLVENELMESNNEEKRTQDEMANELGINRTTLWEWRTKNQDFIAFKSEVADSFLAEKREQVYSKLMQLILGPQPSVKAMQLYMQRFGLLTDKKVIEGDLGNATRTNAEIEEQLQKLKKLTGE,soluble
19,MPGDSMCQAMAGNERHMLTSVKTGTYTMPVLHNRVSNEELKARMLAETEPRTTVSFYKYFTIDDPKAFRDRLYIQLEQYKVFGRIYIAAEGINAQISVPNNQFDAFKTGLFSAHPALDQIRLNIALEDDGKSFWVLRMKVRERIVADGIDDPTFNPANVGQYLKADRVNAMADDPDTVFVDMRNHYEYEVGHFQNALEVPSDTFREQLPMAVDMLDDIRDKNIVMYCTGGIRCEKASAYMLHHGFKNVYHVEGGIIEYARQAKAQGLPLKFIGKNFVFDERMGERISDDVIAHCHQCGASCDSHTNCRNEGCHLLFIQCPSCAAKYEGCCSTQCQDEMKLPLEEQRAIRSGRENGMKIFNKSKGLLQSTLHIPAPAAKDNAELEHHHHHH,not soluble
20,MPGELDTFKEAVKIIIEKEFPELLSPARHMMRAIVIDARQSDCDLQVLAADGSPHPSFPPLANVLVPVRKSVQIGQKVRIGFYYGDPAMPYIDEVLSNGEA,not soluble
